Measured values: US20210147552A1 (UNIVERSITETET I OSLO, published 2021)

B1: 12mer DQ2.5-glia-α1a peptide (free) (peptide)
peptide: QLQPFPQPELPY
notes: also called free peptide
B2: 12mer DQ2.5-glia-α2 peptide (free) (peptide)
peptide: PQPELPYPQPQL
notes: also called free peptide
B3: 33mer α-gliadin peptide (peptide)
peptide: LQLQPFPQPELPYPQPELPYPQPELPYPQPQPF
B4: R3A2-9F hIgG1 (antibody)
heavy: not shown
light: DIQVTQSPSFLSASVGDRVTITCRASHDISSYLAWYQHKPGKAPKLLIHAASILQSGVPSRFSGSGSGTEFTLTISSLQPEDFATYYCQDLNSYPLFGQGTRLEIKRTVAAPSVFIFPPSDEQLKSGTASVVCLLNNFYPREAKVQWKVDNALQSGNSQESVTEQDSKDSTYSLSSTLTLSKADYEKHKVYACEVTHQGLSSPVTKSFNRGEC
notes: also called mAb R3A2-9F
B5: R4A1-3A (107) hIgG1 (antibody, V domains shown)
VH: QVQLQQSGPGLVKPSQTLSLTCAISGDSVSSNSAAWNWIRQSPSRGLEWLGRTYYRSKWYNDYAVSVKSRITINPDTSKNQFSLQLNSVTPEDTAVYYCARDSSSGWHPYGMDVWGQGTTVTVSS
VL: DIQVTQSPSFLSASVGDRVTITCRASHDISSYLAWYQHKPWKAPKLLIHAASILQSGVPSRFSGSGSGTEFTLTISSLQPEDFATYYCQDLNSYPLFGQGTRLEIKR
notes: full-length human IgG1/kappa made in HEK293E; heavy chain constant region with N297G; also called mAb R4A1-3A
B6: R2A1-8E hIgG1 (antibody, V domains shown)
VH: QVQLQQSGPGLVKPSQTLSLTCAISGDSVSSNSAAWNWIRQSPSRGLEWLGRTYYRSKWYNDYAVSVKSRITINPDTSKNQFSLQLNSVTPEDTAVYYCARDSSSGWHPYGMDVWGQGTTVTVSS
VL: DIQVTQSPSFLSASVGDRVTITCRASHDISSYLAWYQHKPGKAPKLLIHAASILQSGVPSRFSGSGSGTEFTLTISSLQPEDFATYYCQQLNSYPLLTFGGGTKVDIKR
notes: full-length human IgG1/kappa made in HEK293E; heavy chain constant region with N297G; also called mAb R2A1-8E

How the values were obtained:
R2A1-8E hIgG1 [1] = target: B6; assay: competition ELISA: 0.1 µg/ml hIgG1 pre-incubated with the competitor, then binding to plate-bound HLA-DQ2.5:DQ2.5-glia-α1a
Protocol: (§1) FIG. 2. […] (C) Eight different HLA-DQ2.5:gluten peptide complexes and HLA-DQ2.5:CLIP2 were used in ELISA for specificity analysis (n=2). mAb 2.12.E11 was included to control pMHC capture levels.
(§2) 96-well MaxiSorp microtiter plates (Nunc) were coated overnight at 4° C. with NeutrAvidin (Avidity, 10 ug/ml in PBS), before blocking with 4% skim milk powder in PBS (w/v). Biotinylated pMHC was captured onto the NeutrAvidin. […] 0.2 μg/ml mAb 2.12.E11 [Viken, H. D., et al., 1995] was detected using polyclonal anti-mouse IgG Fc-ALP (Sigma, 1:2000). […] Assays were performed at RT with duplicate wells, except for single clone screenings with only one well per sample.

R4A1-3A (107) hIgG1 [2] = target: B5; assay: as above
Protocol: as §1, §2

R3A2-9F hIgG1 [3] = target: B4; assay: as above
Protocol: as §1, §2

BSA [4] = target: T1, BSA (Bos taurus, UniProt P02769); assay: ELISA, hIgG1, control well with BSA
T1 construct: not specified; also called bovine serum albumin
T1 sequence (P02769 25-607 limits assumed): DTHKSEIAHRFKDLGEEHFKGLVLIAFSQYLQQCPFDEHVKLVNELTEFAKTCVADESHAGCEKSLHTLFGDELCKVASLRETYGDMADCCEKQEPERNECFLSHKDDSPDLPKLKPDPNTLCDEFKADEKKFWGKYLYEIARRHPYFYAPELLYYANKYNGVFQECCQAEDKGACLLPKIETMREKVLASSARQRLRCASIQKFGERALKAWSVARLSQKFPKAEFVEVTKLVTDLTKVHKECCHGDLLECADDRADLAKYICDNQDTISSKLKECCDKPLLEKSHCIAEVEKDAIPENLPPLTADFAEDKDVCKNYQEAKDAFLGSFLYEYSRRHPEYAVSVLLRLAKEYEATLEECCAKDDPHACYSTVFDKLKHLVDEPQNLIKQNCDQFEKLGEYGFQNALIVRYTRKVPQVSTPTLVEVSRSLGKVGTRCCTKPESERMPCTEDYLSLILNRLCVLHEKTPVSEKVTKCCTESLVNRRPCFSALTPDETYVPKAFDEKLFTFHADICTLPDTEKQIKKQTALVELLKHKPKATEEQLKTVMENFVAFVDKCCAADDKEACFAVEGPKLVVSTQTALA
Protocol: FIG. 14. […] The peptides are annotated according to Sollid, L. M., et al., (Immunogenetics, 2012, 64(6): 455-460) (A). […] Error bars illustrate mean±SD of duplicates. […] HSA=human serum albumin; BSA=bovine serum albumin.
Assays were performed at RT with duplicate wells. Between each layer, the plates were washed 3× with PBST.

R2A1-8E hIgG1 [5] = target: B6; assay: competition ELISA: 0.1 µg/ml hIgG1 pre-incubated with 33mer α-gliadin, then binding to plate-bound HLA-DQ2.5:DQ2.5-glia-α1a
Protocol: as §1, §2

R4A1-3A (107) hIgG1 [6] = target: B5; assay: as above
Protocol: as §1, §2

R3A2-9F hIgG1 [7] = target: B4; assay: as above
Protocol: as §1, §2

33mer α-gliadin peptide = target: B3; assay: competition ELISA, hIgG1 pre-incubated with competitor
Protocol: as §1, §2

[8] = target: B2; assay: as above
Protocol: as §1, §2

[9] = target: B1; assay: as above
Protocol: as §1, §2

BSA [10] = target: T1, BSA; assay: ELISA, hIgG1 (printed anti-glia1a_no106), control well with BSA

Binder	binding result (BSA [4])	binding result (33mer α-gliadin peptide)	binding result [8]	binding result [9]	also measured
B1	–	–	–	–	binding result (R2A1-8E hIgG1 [1]): no binding (tested: 1 µM); binding result (R4A1-3A (107) hIgG1 [2]): no binding (tested: 1 µM); binding result (R3A2-9F hIgG1 [3]): no binding (tested: 1 µM)
206 hIgG1 (antibody, V domains shown, full-length human IgG1/kappa) VH: QVQLVQSGAEVKKPGSSVKVSCKASGGTFSSYAISWVRQAPGQGLEWMGGIIPIFGTANYAQKFQGRVTITADESTSTAYMELSSLRSEDTAVYYCARDVQRMGMDVWGQGTTVTVSS VL: DIQMTQSPSSVSTSVGDRVTITCRASQDISNWLAWYQQKPGKAPKLLIYDSSTLQSGVPSRFSGSGSGTDFTLTISTLQPEDFATYYCQQFNSYPLTFGGGTKVDIKR	no binding (tested: 0.5 µg/ml)	–	–	–	–
B2	–	–	–	–	binding result (R2A1-8E hIgG1 [1]): no binding (tested: 1 µM); binding result (R4A1-3A (107) hIgG1 [2]): no binding (tested: 1 µM); binding result (R3A2-9F hIgG1 [3]): no binding (tested: 1 µM)
220 hIgG1 (antibody, V domains shown, full-length human IgG1/kappa) VH: QVQLVESGAEVKKPGSSVKVSCKASGGTFSSYAISWVRQAPGQGLEWMGGIIPIFGTANYAQKFQGRATITADESTSTAYMELSSLRSEDTAVYYCARGRNTYCSGGSCYSPHFDYWGQGTLVTVSS VL: not shown	no binding (tested: 0.5 µg/ml)	–	–	–	–
B3	–	–	–	–	binding result (R2A1-8E hIgG1 [5]): no binding (tested: 1 µM); binding result (R4A1-3A (107) hIgG1 [6]): no binding (tested: 1 µM); binding result (R3A2-9F hIgG1 [7]): no binding (tested: 1 µM)
228 hIgG1 (antibody, V domains shown, full-length human IgG1/kappa) VH: QVQLVQSGAEVKKPGSSVKVSCKASGGTFSSYAISWVRQAPGQGLEWMGGIIPIFGTANYAQKFQGRVTITADESTSTAYMELSSLRSEDTAVYYCARGQVLIWTYYYGMDVWGQGTTVTVSS VL: DIRLTQSPSSLSASVGDRVTITCQASQDISNYLNWYQQKPGKAPKLLIYDASNLETGVPSRFSGSGSGTDFTFIISSLQPEDIATYYCQQYDNLPLTFGGGTKLEIKR	no binding (tested: 0.5 µg/ml)	–	–	–	–
B4	–	no binding (tested: 1 µM)	no binding (tested: 1 µM)	no binding (tested: 1 µM)	binding result (BSA [10]): no binding (tested: 0.5 µg/ml)
B5	–	no binding (tested: 1 µM)	no binding (tested: 1 µM)	no binding (tested: 1 µM)	–
B6	–	no binding (tested: 1 µM)	no binding (tested: 1 µM)	no binding (tested: 1 µM)	–
